Results from publication PMC11041685, “Emergence of fractal geometries in the evolution of a metabolic enzyme” (Nature, 2024).
Several values for one entry are separate records, joined by “and”; a condition that tells them apart may be missing. Equal entries are not always repeated.

Columns and labels:
[1] = molecular target: SeCS L18Q (Synechococcus elongatus PCC 7942); experiment: negative-stain electron microscopy; 450 nM protein on carbon-coated copper grids, 2% uranyl acetate; 2D class averages and manual particle counts
[2] = molecular target: SeCS L18Q (Synechococcus elongatus PCC 7942); experiment: SAXS; dilution series from the highest concentration, 25 mM Tris-HCl pH 7.5, 200 mM NaCl, 20 °C; Rg by Guinier approximation against Rg of models of the 6mer, 18mer and 54mer
[3] = molecular target: SeCS L18Q (Synechococcus elongatus PCC 7942); experiment: mass photometry; 50 nM protein unless stated otherwise, in PBS or 20 mM Tris, 200 mM NaCl pH 7.5; masses of the complexes in solution, fraction of CS subunits in each oligomeric state
[4] = molecular target: citrate synthase from Cyanobium sp. PCC7001 (Cyanobium sp. PCC7001); experiment: as above
[5] = molecular target: SeCS D147A + L18Q (Synechococcus elongatus PCC 7942); experiment: native MS; 200 mM ammonium acetate, positive-ion nanoelectrospray; D147A at 20 µM, D147A + L18Q at 35 µM
[6] = molecular target: SeCS D147A + L18Q (Synechococcus elongatus PCC 7942); experiment: mass photometry; 50 nM protein unless stated otherwise, in PBS or 20 mM Tris, 200 mM NaCl pH 7.5; masses of the complexes in solution, fraction of CS subunits in each oligomeric state
[7] = molecular target: H369R SeCS (Synechococcus elongatus PCC 7942); experiment: cryo-EM structure; 22.5 µM protein on Quantifoil 2/1 grids
[8] = molecular target: H369R SeCS (Synechococcus elongatus PCC 7942); experiment: as above; remark: listed apart in the source
[9] = molecular target: H369R SeCS (Synechococcus elongatus PCC 7942); experiment: negative-stain electron microscopy; 450 nM protein on carbon-coated copper grids, 2% uranyl acetate; 2D class averages and manual particle counts
[10] = molecular target: H369R SeCS (Synechococcus elongatus PCC 7942); experiment: mass photometry; 50 nM protein unless stated otherwise, in PBS or 20 mM Tris, 200 mM NaCl pH 7.5; masses of the complexes in solution, fraction of CS subunits in each oligomeric state
[11] = molecular target: citrate synthase from Planktothrix mougeotii (Planktothrix mougeotii); experiment: as above
[12] = molecular target: D147A SeCS (Synechococcus elongatus PCC 7942); experiment: native MS; 200 mM ammonium acetate, positive-ion nanoelectrospray; D147A at 20 µM, D147A + L18Q at 35 µM
[13] = molecular target: D147A SeCS (Synechococcus elongatus PCC 7942); experiment: as above; remark: listed apart in the source
[14] = molecular target: D147A SeCS (Synechococcus elongatus PCC 7942); experiment: mass photometry; 50 nM protein unless stated otherwise, in PBS or 20 mM Tris, 200 mM NaCl pH 7.5; masses of the complexes in solution, fraction of CS subunits in each oligomeric state
[15] = molecular target: citrate synthase from Synechococcus elongatus PCC 7942 (Synechococcus elongatus PCC 7942); experiment: cryo-EM structure; 22.5 µM protein on Quantifoil 2/1 grids
[16] = molecular target: citrate synthase from Synechococcus elongatus PCC 7942 (Synechococcus elongatus PCC 7942); experiment: mass photometry; pH titration, 20 mM Tris, 200 mM NaCl pH 7–9.5, 50 nM protein
[17] = molecular target: citrate synthase from Synechococcus elongatus PCC 7942 (Synechococcus elongatus PCC 7942); experiment: crystal structure; 250 µM protein incubated with 5 mM acetyl-CoA; 0.1 M citrate pH 5.5, 2.0 M ammonium sulfate, 20 °C; citrate-bound
[18] = molecular target: citrate synthase from Synechococcus elongatus PCC 7942 (Synechococcus elongatus PCC 7942); experiment: negative-stain electron microscopy; 450 nM protein on carbon-coated copper grids, 2% uranyl acetate; 2D class averages and manual particle counts
[19] = molecular target: citrate synthase from Synechococcus elongatus PCC 7942 (Synechococcus elongatus PCC 7942); experiment: mass photometry; with acetyl-CoA, oxaloacetate or citrate: protein incubated 10 min with the substrate, same substrate concentration in the buffer; cys4 after oxidation
[20] = molecular target: citrate synthase from Synechococcus elongatus PCC 7942 (Synechococcus elongatus PCC 7942); experiment: SAXS; dilution series from the highest concentration, 25 mM Tris-HCl pH 7.5, 200 mM NaCl, 20 °C; Rg by Guinier approximation against Rg of models of the 6mer, 18mer and 54mer
[21] = molecular target: citrate synthase from Synechococcus elongatus PCC 7942 (Synechococcus elongatus PCC 7942); experiment: mass photometry; 50 nM protein unless stated otherwise, in PBS or 20 mM Tris, 200 mM NaCl pH 7.5; masses of the complexes in solution, fraction of CS subunits in each oligomeric state
[22] = molecular target: Δ2–6 SeCS (Synechococcus elongatus PCC 7942); experiment: cryo-EM structure; 22.5 µM protein on Quantifoil 2/1 grids
[23] = molecular target: Δ2–6 SeCS (Synechococcus elongatus PCC 7942); experiment: mass photometry; 50 nM protein unless stated otherwise, in PBS or 20 mM Tris, 200 mM NaCl pH 7.5; masses of the complexes in solution, fraction of CS subunits in each oligomeric state
purified protein [24] = substrate: CC(=O)SCCNC(=O)CCNC(=O)[C@H](O)C(C)(C)COP(=O)(O)OP(=O)(O)OC[C@H]1O[C@@H](n2cnc3c(N)ncnc32)[C@H](O)[C@@H]1OP(=O)(O)O; experiment: purified protein; type: biochemical, Synechococcus elongatus; conditions: 1 mM oxaloacetate, 50 mM Tris pH 7.5, 10 mM KCl, 25 nM protein, 25 °C
purified protein [25] = substrate: O=C(O)CC(=O)C(=O)O; experiment: purified protein; type: biochemical, Synechococcus elongatus; conditions: 0.5 mM acetyl-CoA, 50 mM Tris pH 7.5, 10 mM KCl, 25 nM protein, 25 °C

**Q.** With SeCS L18Q (enzyme) as the molecule, how does the stoichiometry N [1] read?
**A.** 6 subunits

**Q.** And the stoichiometry N [2]?
**A.** 6 subunits

**Q.** What about the stoichiometry N [3] of the same molecule?
**A.** 6 subunits

**Q.** “citrate synthase from Cyanobium sp. PCC7001 (enzyme)” was tested. Which stoichiometry N [4] did it give?
**A.** 2 subunits

**Q.** What does the source list for SeCS D147A + L18Q (enzyme)?
**A.** stoichiometry N [5]: 2 subunits and 6 subunits; stoichiometry N [6]: 2 subunits

**Q.** What does the source list for H369R SeCS (enzyme)?
**A.** stoichiometry N [7]: 18 subunits; stoichiometry N [8]: 54 subunits; stoichiometry N [9]: 18 subunits and 54 subunits; stoichiometry N [10]: 18 subunits

**Q.** “citrate synthase from Planktothrix mougeotii (enzyme)” was tested. Which stoichiometry N [11] did it give?
**A.** 18 subunits

**Q.** How did the stoichiometry N [12] turn out when D147A SeCS (enzyme) was run?
**A.** 4 subunits and 6 subunits

**Q.** What about the stoichiometry N [13] of the same molecule?
**A.** > 8 subunits

**Q.** And the stoichiometry N [14]?
**A.** 2 subunits

**Q.** For “citrate synthase from Synechococcus elongatus PCC 7942 (enzyme)”, which stoichiometry N [15] is on record?
**A.** 18 subunits

**Q.** What about the stoichiometry N [16] of the same molecule?
**A.** 6 subunits

**Q.** And the stoichiometry N [17]?
**A.** 6 subunits

**Q.** What about the stoichiometry N [18] of the same molecule?
**A.** 18 subunits and 36 subunits and 54 subunits

**Q.** What about the stoichiometry N [19] of the same molecule?
**A.** 6 subunits

**Q.** What about the stoichiometry N [20] of the same molecule?
**A.** > 54 subunits

**Q.** And the stoichiometry N [21]?
**A.** 18 subunits

**Q.** Which results are given for Δ2–6 SeCS (enzyme)?
**A.** stoichiometry N [22]: 6 subunits; stoichiometry N [23]: 6 subunits

B1: SeCS (CS of S. elongatus PCC 7942) (Synechococcus elongatus PCC 7942 = FACHB-805) (protein)
chain: MTAVSEFRPGLEGVPATLSSISFVDGQRGVLEYRGISIEQLAQQSSFLETAYLLIWGHLPTQQELTEFEHEIRYHRRIKFRIRDMMKCFPDSGHPMDALQASAAALGLFYSRRALDDPEYIRAAVVRLLAKIPTMVAAFQLIRKGNDPIQPRDELDYAANFLYMLTEREPDPVAARIFDICLTLHAEHTINASTFSAMVTASTLTDPYAVVASAVGTLAGPLHGGANEEVLDMLEAIGSVENVEPYLDHCIATKTRIMGFGHRVYKVKDPRAVILQNLAEQLFDIFGHDPYYEIAVAVEKAAAERLSHKGIYPNVDFYSGLVYRKLGIPSDLFTPVFAIARVAGWLAHWKEQLNENRIFRPTQIYTGSHNLDYTPIADRDLAIESD
notes: full length, C-terminal His tag (LE-HHHHHH) kept, E. coli BL21 (DE3); 18mer, active as homohexamer
**Q.** B1 was tested. Which Km (purified protein [24]) did it give?
**A.** 91.8 ± 9.2 µM

**Q.** And the kcat (purified protein [24])?
**A.** 24.2 ± 1.3 s⁻¹

**Q.** And the Km (purified protein [25])?
**A.** 65.6 ± 10.6 µM

**Q.** And the kcat (purified protein [25])?
**A.** 19.5 ± 1.7 s⁻¹
